Measured values from article PMC10397247.

Tests used:
Experiment in all cases: two-hybrid library CCmax;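 also: natural log of median RNA to DNA barcode read ratio; higher means stronger binding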
[1] = molecular target: T1, 4H2729-AA; conditions: mean of both orientations
T1 chain: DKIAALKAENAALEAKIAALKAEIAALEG

[2] = molecular target: T2, 4H3655-AA; conditions: mean of both orientations
T2 chain: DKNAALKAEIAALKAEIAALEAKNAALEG

[3] = molecular target: T3, 4H3427-AA; conditions: mean of both orientations
T3 chain: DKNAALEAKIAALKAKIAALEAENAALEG

[4] = molecular target: T4, 4H2277-AA; conditions: mean of both orientations
T4 chain: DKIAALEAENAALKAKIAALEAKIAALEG

[5] = molecular target: T5, 4H993-AA; conditions: mean of both orientations
T5 chain: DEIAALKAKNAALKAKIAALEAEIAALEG

[6] = molecular target: T6, 4H3921-AA; conditions: mean of both orientations
T6 chain: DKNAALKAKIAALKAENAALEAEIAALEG

[7] = molecular target: T7, 4H2949-AA; conditions: mean of both orientations
T7 chain: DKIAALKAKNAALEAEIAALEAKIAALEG

[8] = molecular target: T8, 4H2754-AA; conditions: mean of both orientations
T8 chain: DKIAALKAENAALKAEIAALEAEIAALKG

[9] = molecular target: T9, 4H342-AA; conditions: mean of both orientations
T9 chain: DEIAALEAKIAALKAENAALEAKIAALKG

[10] = molecular target: T10, 4H1636-AA; conditions: mean of both orientations
T10 chain: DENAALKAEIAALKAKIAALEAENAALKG

[11] = molecular target: T11, 4H2393-AA; conditions: mean of both orientations
T11 chain: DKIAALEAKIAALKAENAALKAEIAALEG

[12] = molecular target: T12, 4H429-AA; conditions: mean of both orientations
T12 chain: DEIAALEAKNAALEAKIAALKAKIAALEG

[13] = molecular target: T13, 4H48-AA; conditions: mean of both orientations
T13 chain: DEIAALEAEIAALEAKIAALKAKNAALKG

[14] = molecular target: T14, 4H3112-AA; conditions: mean of both orientations
T14 chain: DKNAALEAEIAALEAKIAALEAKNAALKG

[15] = molecular target: T15, 4H906-AA; conditions: mean of both orientations
T15 chain: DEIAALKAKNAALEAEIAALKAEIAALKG

[16] = molecular target: T16, 4H122-AA; conditions: mean of both orientations
T16 chain: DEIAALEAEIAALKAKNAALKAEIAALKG

[17] = molecular target: T17, 4H3844-AA; conditions: mean of both orientations
T17 chain: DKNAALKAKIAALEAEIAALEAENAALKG

[18] = molecular target: T18, 4H1324-AA; conditions: mean of both orientations
T18 chain: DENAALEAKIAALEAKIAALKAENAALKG

[19] = molecular target: T19, 4H566-AA; conditions: mean of both orientations
T19 chain: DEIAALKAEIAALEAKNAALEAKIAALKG

[20] = molecular target: T20, 4H1352-AA; conditions: mean of both orientations
T20 chain: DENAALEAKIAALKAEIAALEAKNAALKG

[21] = molecular target: T21, 4H3606-AA; conditions: mean of both orientations
T21 chain: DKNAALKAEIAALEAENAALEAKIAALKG

[22] = molecular target: T22, 4H3627-AA; conditions: mean of both orientations
T22 chain: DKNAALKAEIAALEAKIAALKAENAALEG

[23] = molecular target: T23, 4H2617-AA; conditions: mean of both orientations
T23 chain: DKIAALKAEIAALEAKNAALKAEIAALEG

[24] = molecular target: T24, 4H1135-AA
T24 chain: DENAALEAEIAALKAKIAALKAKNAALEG

[25] = molecular target: T25, 4H2151-AA; conditions: mean of both orientations
T25 chain: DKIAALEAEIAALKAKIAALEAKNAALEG

[26] = molecular target: T26, 4H2944-AA; conditions: mean of both orientations
T26 chain: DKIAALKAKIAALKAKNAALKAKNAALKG

[27] = molecular target: T27, 4H605-AA; conditions: mean of both orientations
T27 chain: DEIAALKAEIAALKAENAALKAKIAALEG

[28] = molecular target: T28, 4H2165-AA; conditions: mean of both orientations
T28 chain: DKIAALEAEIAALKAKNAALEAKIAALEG

[29] = molecular target: T29, 4H2837-AA; conditions: mean of both orientations
T29 chain: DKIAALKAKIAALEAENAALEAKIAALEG

[30] = molecular target: T30, 4H780-AA; conditions: mean of both orientations
T30 chain: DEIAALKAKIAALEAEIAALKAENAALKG

[31] = molecular target: T31, 4H1552-AA; conditions: mean of both orientations
T31 chain: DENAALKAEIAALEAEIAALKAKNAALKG

[32] = molecular target: T32, 4H335-AA; conditions: mean of both orientations
T32 chain: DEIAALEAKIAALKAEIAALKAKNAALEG

[33] = molecular target: T33, 4H2505-AA; conditions: mean of both orientations
T33 chain: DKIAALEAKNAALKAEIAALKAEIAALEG

[34] = molecular target: T34, 4H2190-AA; conditions: mean of both orientations
T34 chain: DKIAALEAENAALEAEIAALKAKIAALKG

[35] = molecular target: T35, 4H2642-AA; conditions: mean of both orientations
T35 chain: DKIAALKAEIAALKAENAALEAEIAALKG

[36] = molecular target: T36, 4H2078-AA; conditions: mean of both orientations
T36 chain: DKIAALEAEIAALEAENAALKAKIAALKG

[37] = molecular target: T37, 4H2575-AA; conditions: mean of both orientations
T37 chain: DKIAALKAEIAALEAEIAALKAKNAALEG

[38] = molecular target: T38, 4H2883-AA; conditions: mean of both orientations
T38 chain: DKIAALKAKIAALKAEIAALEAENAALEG

[39] = molecular target: T39, 4H1401-AA; conditions: mean of both orientations
T39 chain: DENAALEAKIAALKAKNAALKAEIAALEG

[40] = molecular target: T40, 4H717-AA; conditions: mean of both orientations
T40 chain: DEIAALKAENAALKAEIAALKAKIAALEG

[41] = molecular target: T41, 4H2354-AA; conditions: mean of both orientations
T41 chain: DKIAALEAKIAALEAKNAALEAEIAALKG

[42] = molecular target: T42, 4H1867-AA; conditions: mean of both orientations
T42 chain: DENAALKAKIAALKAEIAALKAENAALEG

[43] = molecular target: T43, 4H234-AA; conditions: mean of both orientations
T43 chain: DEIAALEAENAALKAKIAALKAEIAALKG

[44] = molecular target: T44, 4H454-AA; conditions: mean of both orientations
T44 chain: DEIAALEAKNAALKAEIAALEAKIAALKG

[45] = molecular target: T45, 4H794-AA; conditions: mean of both orientations
T45 chain: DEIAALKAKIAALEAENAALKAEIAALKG

[46] = molecular target: T46, 4H2466-AA; conditions: mean of both orientations
T46 chain: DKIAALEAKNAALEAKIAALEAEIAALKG

[47] = molecular target: T47, 4H3343-AA; conditions: mean of both orientations
T47 chain: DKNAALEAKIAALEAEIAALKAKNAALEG

[48] = molecular target: T48, 4H317-AA; conditions: mean of both orientations
T48 chain: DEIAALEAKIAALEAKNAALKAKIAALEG

[49] = molecular target: T49, 4H1153-AA; conditions: mean of both orientations
T49 chain: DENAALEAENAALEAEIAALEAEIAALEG

[50] = molecular target: T50, 4H678-AA; conditions: mean of both orientations
T50 chain: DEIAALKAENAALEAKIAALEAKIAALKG

[51] = molecular target: T51, 4H881-AA; conditions: mean of both orientations
T51 chain: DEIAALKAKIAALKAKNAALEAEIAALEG

## DENAALEAEIAALKAKIAALKAKNAALEG [4H1135-AA]
[1]
  interaction score: -0.655
[2]
  interaction score: 1.88
[3]
  interaction score: -1.05
[4]
  interaction score: -1.81
[5]
  interaction score: 0.00688
[6]
  interaction score: -0.897
[7]
  interaction score: -1.21
[8]
  interaction score: -0.686
[9]
  interaction score: -1.17
[10]
  interaction score: -0.92
[11]
  interaction score: -1.45
[12]
  interaction score: -1.27
[13]
  interaction score: 0.894
[14]
  interaction score: 1.57
[15]
  interaction score: -1.37
[16]
  interaction score: -1.24
[17]
  interaction score: 0.92
[18]
  interaction score: -1.33
[19]
  interaction score: -0.252
[20]
  interaction score: 0.703
[21]
  interaction score: 0.227
[22]
  interaction score: 0.0922
[23]
  interaction score: -0.407
[24]
  interaction score: -0.919
[25]
  interaction score: -0.817
[26]
  interaction score: -1.57
[27]
  interaction score: -1.37
[28]
  interaction score: -1.42
[29]
  interaction score: -0.865
[30]
  interaction score: -1.44
[31]
  interaction score: 0.834
[32]
  interaction score: -0.173
[33]
  interaction score: 1.53
[34]
  interaction score: -1.27
[35]
  interaction score: -1.3
[36]
  interaction score: -1.19
[37]
  interaction score: 0.484
[38]
  interaction score: 1.22
[39]
  interaction score: -1.46
[40]
  interaction score: -1.4
[41]
  interaction score: -1.64
[42]
  interaction score: 0.0539
[43]
  interaction score: -1.27
[44]
  interaction score: -0.222
[45]
  interaction score: -1.61
[46]
  interaction score: -1.49
[47]
  interaction score: -0.943
[48]
  interaction score: -0.38
[49]
  interaction score: -0.461
[50]
  interaction score: -0.965
[51]
  interaction score: -1.61
